The assay concerns the target T1, FLAG-tagged FAAP20 (human, UniProt Q6NZ36 1-180).
T1 sequence (looked up): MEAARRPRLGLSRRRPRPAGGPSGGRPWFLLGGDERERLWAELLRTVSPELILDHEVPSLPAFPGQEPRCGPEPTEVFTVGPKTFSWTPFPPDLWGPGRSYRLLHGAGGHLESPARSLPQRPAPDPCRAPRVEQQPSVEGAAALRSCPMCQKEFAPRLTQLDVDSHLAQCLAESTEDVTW
Briefly: LUMIER.

This note sets out measurements from publication PMC5325763 (Cell, 2017).

B1: Renilla luciferase-tagged FANCA R880Q (natural protein, human, UniProt O15360-1 1-1455, looked up)
chain: MSDSWVPNSASGQDPGGRRRAWAELLAGRVKREKYNPERAQKLKESAVRLLRSHQDLNALLLEVEGPLCKKLSLSKVIDCDSSEAYANHSSSFIGSALQDQASRLGVPVGILSAGMVASSVGQICTAPAETSHPVLLTVEQRKKLSSLLEFAQYLLAHSMFSRLSFCQELWKIQSSLLLEAVWHLHVQGIVSLQELLESHPDMHAVGSWLFRNLCCLCEQMEASCQHADVARAMLSDFVQMFVLRGFQKNSDLRRTVEPEKMPQVTVDVLQRMLIFALDALAAGVQEESSTHKIVRCWFGVFSGHTLGSVISTDPLKRFFSHTLTQILTHSPVLKASDAVQMQREWSFARTHPLLTSLYRRLFVMLSAEELVGHLQEVLETQEVHWQRVLSFVSALVVCFPEAQQLLEDWVARLMAQAFESCQLDSMVTAFLVVRQAALEGPSAFLSYADWFKASFGSTRGYHGCSKKALVFLFTFLSELVPFESPRYLQVHILHPPLVPGKYRSLLTDYISLAKTRLADLKVSIENMGLYEDLSSAGDITEPHSQALQDVEKAIMVFEHTGNIPVTVMEASIFRRPYYVSHFLPALLTPRVLPKVPDSRVAFIESLKRADKIPPSLYSTYCQACSAAEEKPEDAALGVRAEPNSAEEPLGQLTAALGELRASMTDPSQRDVISAQVAVISERLRAVLGHNEDDSSVEISKIQLSINTPRLEPREHMAVDLLLTSFCQNLMAASSVAPPERQGPWAALFVRTMCGRVLPAVLTRLCQLLRHQGPSLSAPHVLGLAALAVHLGESRSALPEVDVGPPAPGAGLPVPALFDSLLTCRTRDSLFFCLKFCTAAISYSLCKFSSQSRDTLCSCLSPGLIKKFQFLMFRLFSEAQQPLSEEDVASLSWRPLHLPSADWQRAALSLWTHRTFREVLKEEDVHLTYQDWLHLELEIQPEADALSDTERQDFHQWAIHEHFLPESSASGGCDGDLQAACTILVNALMDFHQSSRSYDHSENSDLVFGGRTGNEDIISRLQEMVADLELQQDLIVPLGHTPSQEHFLFEIFRRRLQALTSGWSVAASLQRQRELLMYKRILLRLPSSVLCGSSFQAEQPITARCEQFFHLVNSEMRNFCSHGGALTQDITAHFFRGLLNACLRSRDPSLMVDFILAKCQTKCPLILTSALVWWPSLEPVLLCRWRRHCQSPLPRELQKLQEGRQFASDFLSPEAASPAPNPDWLSAAALHFAIQQVREENIRKQLKKLDCEREELLVFLFFFSLMGLLSSHLTSNSTTDLPKAFHVCAAILECLEKRKISWLALFQLTESDLRLGRLLLRVAPDQHTRLLPFAFYSLLSYFHEDAAIREEAFLHVAVDMYLKLVQLFVAGDTSTVSPPAGRSLELKGQGNPVELITKARLFLLQLIPRCPKKSFSHVAELLADRGDCDPEVSAALQSRQQAAPDADLSQEPHLF
On to B1, for which the “fold weaker binding than wild-type FANCA” value is around 8 fold.
